Data from US20210388087A1 (Chugai, published 2021).

Target: T1, Human CD137 ECD (human)
T1 construct: entry includes C-terminal His-tag and biotin acceptor peptide; also called human CD137 extracellular domain; 4-1BB
Assay: Biacore SPR, vs parent H183/L072

T1 sequence (chain, as listed by the source limits assumed): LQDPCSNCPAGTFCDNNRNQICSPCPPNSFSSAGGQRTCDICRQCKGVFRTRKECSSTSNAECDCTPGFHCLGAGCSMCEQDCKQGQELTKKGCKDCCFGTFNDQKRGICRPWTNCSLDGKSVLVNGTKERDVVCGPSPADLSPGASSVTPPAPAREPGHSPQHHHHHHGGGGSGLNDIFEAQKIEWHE

Binder | fold change of affinity [fold]
H183/L072 VL A89L (antibody, name in Kabat numbering, V domains shown, Dual-Ig) VH: QVQLVESGGGLVQPGRSLRLSCAASGFTFSNAWMHWVRQAPGKGLEWVAQIKDKGNAYAAYYAPSVKGRFTISRDDSKNSIYLQMNSLKTEDTAVYYCHYVHYASASTVLPAFGVDAWGQGTTVTVSS VL: DIVMTQSPLSLPVTPGEPASISCQASQELVHMNRNTYLHWYQQKPGQAPRLLIYKVSNRFPGVPDRFSGSGSGTDFTLKISRVEAEDVGVYYCLQGTSVPFTFGQGTKLEIK | 0
H183/L072 VL A89M (antibody, name in Kabat numbering, V domains shown, Dual-Ig) VH: QVQLVESGGGLVQPGRSLRLSCAASGFTFSNAWMHWVRQAPGKGLEWVAQIKDKGNAYAAYYAPSVKGRFTISRDDSKNSIYLQMNSLKTEDTAVYYCHYVHYASASTVLPAFGVDAWGQGTTVTVSS VL: DIVMTQSPLSLPVTPGEPASISCQASQELVHMNRNTYLHWYQQKPGQAPRLLIYKVSNRFPGVPDRFSGSGSGTDFTLKISRVEAEDVGVYYCMQGTSVPFTFGQGTKLEIK | 0
H183/L072 VL A89T (antibody, name in Kabat numbering, V domains shown, Dual-Ig) VH: QVQLVESGGGLVQPGRSLRLSCAASGFTFSNAWMHWVRQAPGKGLEWVAQIKDKGNAYAAYYAPSVKGRFTISRDDSKNSIYLQMNSLKTEDTAVYYCHYVHYASASTVLPAFGVDAWGQGTTVTVSS VL: DIVMTQSPLSLPVTPGEPASISCQASQELVHMNRNTYLHWYQQKPGQAPRLLIYKVSNRFPGVPDRFSGSGSGTDFTLKISRVEAEDVGVYYCTQGTSVPFTFGQGTKLEIK | 0
H183/L072 VL A89V (antibody, name in Kabat numbering, V domains shown, Dual-Ig) VH: QVQLVESGGGLVQPGRSLRLSCAASGFTFSNAWMHWVRQAPGKGLEWVAQIKDKGNAYAAYYAPSVKGRFTISRDDSKNSIYLQMNSLKTEDTAVYYCHYVHYASASTVLPAFGVDAWGQGTTVTVSS VL: DIVMTQSPLSLPVTPGEPASISCQASQELVHMNRNTYLHWYQQKPGQAPRLLIYKVSNRFPGVPDRFSGSGSGTDFTLKISRVEAEDVGVYYCVQGTSVPFTFGQGTKLEIK | 0
H183/L072 VL A89W (antibody, name in Kabat numbering, V domains shown, Dual-Ig) VH: QVQLVESGGGLVQPGRSLRLSCAASGFTFSNAWMHWVRQAPGKGLEWVAQIKDKGNAYAAYYAPSVKGRFTISRDDSKNSIYLQMNSLKTEDTAVYYCHYVHYASASTVLPAFGVDAWGQGTTVTVSS VL: DIVMTQSPLSLPVTPGEPASISCQASQELVHMNRNTYLHWYQQKPGQAPRLLIYKVSNRFPGVPDRFSGSGSGTDFTLKISRVEAEDVGVYYCWQGTSVPFTFGQGTKLEIK | 0
H183/L072 VL A89Q (antibody, name in Kabat numbering, V domains shown, Dual-Ig) VH: QVQLVESGGGLVQPGRSLRLSCAASGFTFSNAWMHWVRQAPGKGLEWVAQIKDKGNAYAAYYAPSVKGRFTISRDDSKNSIYLQMNSLKTEDTAVYYCHYVHYASASTVLPAFGVDAWGQGTTVTVSS VL: DIVMTQSPLSLPVTPGEPASISCQASQELVHMNRNTYLHWYQQKPGQAPRLLIYKVSNRFPGVPDRFSGSGSGTDFTLKISRVEAEDVGVYYCQQGTSVPFTFGQGTKLEIK | 0
H183/L072 VL A89P (antibody, name in Kabat numbering, V domains shown, Dual-Ig) VH: QVQLVESGGGLVQPGRSLRLSCAASGFTFSNAWMHWVRQAPGKGLEWVAQIKDKGNAYAAYYAPSVKGRFTISRDDSKNSIYLQMNSLKTEDTAVYYCHYVHYASASTVLPAFGVDAWGQGTTVTVSS VL: DIVMTQSPLSLPVTPGEPASISCQASQELVHMNRNTYLHWYQQKPGQAPRLLIYKVSNRFPGVPDRFSGSGSGTDFTLKISRVEAEDVGVYYCPQGTSVPFTFGQGTKLEIK | 0
H183/L072 VL A89N (antibody, name in Kabat numbering, V domains shown, Dual-Ig) VH: QVQLVESGGGLVQPGRSLRLSCAASGFTFSNAWMHWVRQAPGKGLEWVAQIKDKGNAYAAYYAPSVKGRFTISRDDSKNSIYLQMNSLKTEDTAVYYCHYVHYASASTVLPAFGVDAWGQGTTVTVSS VL: DIVMTQSPLSLPVTPGEPASISCQASQELVHMNRNTYLHWYQQKPGQAPRLLIYKVSNRFPGVPDRFSGSGSGTDFTLKISRVEAEDVGVYYCNQGTSVPFTFGQGTKLEIK | 0
H183/L072 VL A89S (antibody, name in Kabat numbering, V domains shown, Dual-Ig) VH: QVQLVESGGGLVQPGRSLRLSCAASGFTFSNAWMHWVRQAPGKGLEWVAQIKDKGNAYAAYYAPSVKGRFTISRDDSKNSIYLQMNSLKTEDTAVYYCHYVHYASASTVLPAFGVDAWGQGTTVTVSS VL: DIVMTQSPLSLPVTPGEPASISCQASQELVHMNRNTYLHWYQQKPGQAPRLLIYKVSNRFPGVPDRFSGSGSGTDFTLKISRVEAEDVGVYYCSQGTSVPFTFGQGTKLEIK | 0
H183/L072 VL A89R (antibody, name in Kabat numbering, V domains shown, Dual-Ig) VH: QVQLVESGGGLVQPGRSLRLSCAASGFTFSNAWMHWVRQAPGKGLEWVAQIKDKGNAYAAYYAPSVKGRFTISRDDSKNSIYLQMNSLKTEDTAVYYCHYVHYASASTVLPAFGVDAWGQGTTVTVSS VL: DIVMTQSPLSLPVTPGEPASISCQASQELVHMNRNTYLHWYQQKPGQAPRLLIYKVSNRFPGVPDRFSGSGSGTDFTLKISRVEAEDVGVYYCRQGTSVPFTFGQGTKLEIK | 0

The remaining lines, values ahead:

fold change of affinity [fold] | Binder
0.9 | H183/L072 VL E27aL (antibody, name in Kabat numbering, V domains shown, Dual-Ig) VH: QVQLVESGGGLVQPGRSLRLSCAASGFTFSNAWMHWVRQAPGKGLEWVAQIKDKGNAYAAYYAPSVKGRFTISRDDSKNSIYLQMNSLKTEDTAVYYCHYVHYASASTVLPAFGVDAWGQGTTVTVSS VL: DIVMTQSPLSLPVTPGEPASISCQASQLLVHMNRNTYLHWYQQKPGQAPRLLIYKVSNRFPGVPDRFSGSGSGTDFTLKISRVEAEDVGVYYCAQGTSVPFTFGQGTKLEIK
0.9 | H183/L072 VL E27aA (antibody, name in Kabat numbering, V domains shown, Dual-Ig) VH: QVQLVESGGGLVQPGRSLRLSCAASGFTFSNAWMHWVRQAPGKGLEWVAQIKDKGNAYAAYYAPSVKGRFTISRDDSKNSIYLQMNSLKTEDTAVYYCHYVHYASASTVLPAFGVDAWGQGTTVTVSS VL: DIVMTQSPLSLPVTPGEPASISCQASQALVHMNRNTYLHWYQQKPGQAPRLLIYKVSNRFPGVPDRFSGSGSGTDFTLKISRVEAEDVGVYYCAQGTSVPFTFGQGTKLEIK
1.1 | H183/L072 VL E27aD (antibody, name in Kabat numbering, V domains shown, Dual-Ig) VH: QVQLVESGGGLVQPGRSLRLSCAASGFTFSNAWMHWVRQAPGKGLEWVAQIKDKGNAYAAYYAPSVKGRFTISRDDSKNSIYLQMNSLKTEDTAVYYCHYVHYASASTVLPAFGVDAWGQGTTVTVSS VL: DIVMTQSPLSLPVTPGEPASISCQASQDLVHMNRNTYLHWYQQKPGQAPRLLIYKVSNRFPGVPDRFSGSGSGTDFTLKISRVEAEDVGVYYCAQGTSVPFTFGQGTKLEIK
0.8 | H183/L072 VL E27aP (antibody, name in Kabat numbering, V domains shown, Dual-Ig) VH: QVQLVESGGGLVQPGRSLRLSCAASGFTFSNAWMHWVRQAPGKGLEWVAQIKDKGNAYAAYYAPSVKGRFTISRDDSKNSIYLQMNSLKTEDTAVYYCHYVHYASASTVLPAFGVDAWGQGTTVTVSS VL: DIVMTQSPLSLPVTPGEPASISCQASQPLVHMNRNTYLHWYQQKPGQAPRLLIYKVSNRFPGVPDRFSGSGSGTDFTLKISRVEAEDVGVYYCAQGTSVPFTFGQGTKLEIK
0.8 | H183/L072 VL E27aI (antibody, name in Kabat numbering, V domains shown, Dual-Ig) VH: QVQLVESGGGLVQPGRSLRLSCAASGFTFSNAWMHWVRQAPGKGLEWVAQIKDKGNAYAAYYAPSVKGRFTISRDDSKNSIYLQMNSLKTEDTAVYYCHYVHYASASTVLPAFGVDAWGQGTTVTVSS VL: DIVMTQSPLSLPVTPGEPASISCQASQILVHMNRNTYLHWYQQKPGQAPRLLIYKVSNRFPGVPDRFSGSGSGTDFTLKISRVEAEDVGVYYCAQGTSVPFTFGQGTKLEIK
1 | H183/L072 VL E27aG (antibody, name in Kabat numbering, V domains shown, Dual-Ig) VH: QVQLVESGGGLVQPGRSLRLSCAASGFTFSNAWMHWVRQAPGKGLEWVAQIKDKGNAYAAYYAPSVKGRFTISRDDSKNSIYLQMNSLKTEDTAVYYCHYVHYASASTVLPAFGVDAWGQGTTVTVSS VL: DIVMTQSPLSLPVTPGEPASISCQASQGLVHMNRNTYLHWYQQKPGQAPRLLIYKVSNRFPGVPDRFSGSGSGTDFTLKISRVEAEDVGVYYCAQGTSVPFTFGQGTKLEIK
0.9 | H183/L072 VL E27aN (antibody, name in Kabat numbering, V domains shown, Dual-Ig) VH: QVQLVESGGGLVQPGRSLRLSCAASGFTFSNAWMHWVRQAPGKGLEWVAQIKDKGNAYAAYYAPSVKGRFTISRDDSKNSIYLQMNSLKTEDTAVYYCHYVHYASASTVLPAFGVDAWGQGTTVTVSS VL: DIVMTQSPLSLPVTPGEPASISCQASQNLVHMNRNTYLHWYQQKPGQAPRLLIYKVSNRFPGVPDRFSGSGSGTDFTLKISRVEAEDVGVYYCAQGTSVPFTFGQGTKLEIK
1.1 | H183/L072 VL E27aH (antibody, name in Kabat numbering, V domains shown, Dual-Ig) VH: QVQLVESGGGLVQPGRSLRLSCAASGFTFSNAWMHWVRQAPGKGLEWVAQIKDKGNAYAAYYAPSVKGRFTISRDDSKNSIYLQMNSLKTEDTAVYYCHYVHYASASTVLPAFGVDAWGQGTTVTVSS VL: DIVMTQSPLSLPVTPGEPASISCQASQHLVHMNRNTYLHWYQQKPGQAPRLLIYKVSNRFPGVPDRFSGSGSGTDFTLKISRVEAEDVGVYYCAQGTSVPFTFGQGTKLEIK
0.9 | H183/L072 VL E27aM (antibody, name in Kabat numbering, V domains shown, Dual-Ig) VH: QVQLVESGGGLVQPGRSLRLSCAASGFTFSNAWMHWVRQAPGKGLEWVAQIKDKGNAYAAYYAPSVKGRFTISRDDSKNSIYLQMNSLKTEDTAVYYCHYVHYASASTVLPAFGVDAWGQGTTVTVSS VL: DIVMTQSPLSLPVTPGEPASISCQASQMLVHMNRNTYLHWYQQKPGQAPRLLIYKVSNRFPGVPDRFSGSGSGTDFTLKISRVEAEDVGVYYCAQGTSVPFTFGQGTKLEIK
1.1 | H183/L072 VL E27aF (antibody, name in Kabat numbering, V domains shown, Dual-Ig) VH: QVQLVESGGGLVQPGRSLRLSCAASGFTFSNAWMHWVRQAPGKGLEWVAQIKDKGNAYAAYYAPSVKGRFTISRDDSKNSIYLQMNSLKTEDTAVYYCHYVHYASASTVLPAFGVDAWGQGTTVTVSS VL: DIVMTQSPLSLPVTPGEPASISCQASQFLVHMNRNTYLHWYQQKPGQAPRLLIYKVSNRFPGVPDRFSGSGSGTDFTLKISRVEAEDVGVYYCAQGTSVPFTFGQGTKLEIK
0.9 | H183/L072 VL E27aK (antibody, name in Kabat numbering, V domains shown, Dual-Ig) VH: QVQLVESGGGLVQPGRSLRLSCAASGFTFSNAWMHWVRQAPGKGLEWVAQIKDKGNAYAAYYAPSVKGRFTISRDDSKNSIYLQMNSLKTEDTAVYYCHYVHYASASTVLPAFGVDAWGQGTTVTVSS VL: DIVMTQSPLSLPVTPGEPASISCQASQKLVHMNRNTYLHWYQQKPGQAPRLLIYKVSNRFPGVPDRFSGSGSGTDFTLKISRVEAEDVGVYYCAQGTSVPFTFGQGTKLEIK
